Source: patent US8748390B2, “Immunogenic epitopes of NGEP antigen” (The United States of America, as represented by the …, priority 2009, dated 2014)

Legend:
[1] = target: T1, HLA-A2 molecules (Homo sapiens, UniProt P04439, D140Y/D185E/D98H/E176V/E277Q/G131W/G231S/I119V/I121R/I166T/I218V/L300P/L318F/N151K/N90K/P208A/P217A/Q86G/Q94H/R138H/R169H/T345S); experiment: T2 cell-binding assay: regulation of HLA-A2 expression on T2 cells by flow cytometry; conditions: for T2 Binding: peptide 25 μg/mL, T2 cells, flow cytometry
T1 construct: endogenous in cells; host or cells: T2 cells
Description: FIG. 1B is a graph depicting the binding of the P703 and P215 peptides to HLA-A2 molecules at various peptide concentrations. Peptide concentration (μg/mL) is on the x-axis, and mean fluorescence intensity (MFI) is on the y-axis. The positive control peptide is MUC-1, and the negative control peptide is CAP-7.
The T2 binding values are expressed in mean fluorescence intensity. The values in parentheses are fold increases as compared with the negative control (CAP-7 peptide).

[2] = system: CD8+ T cells in PBMC; experiment: Tetramer staining of PBMC from healthy donors and prostate cancer patients; type: cell-based, human; conditions: Patients 2, 3 and 4 of four, pre-vaccination
Procedure: To determine if prostate cancer patients recognized the NGEP-P703 epitope, PBMC from four patients with metastatic prostate cancer and from four healthy donors were analyzed for the presence of CD8^+ T cells reactive with the NGEP-P703 tetramer. T cells (5×10^5) were stained with 10 μl of PE-labeled NGEP-P703/HLA-A*0201 tetramer and anti-CD8 antibody.
These same four prostate cancer patients then were analyzed for tetramer binding after receiving six monthly cycles of a PSA-based vaccine (PSA/TRICOM).

[3] = target: T1, HLA-A2 molecules; experiment: Stability of peptide-HLA-A2 complexes on T2 cells after brefeldin A; type: binding; conditions: peptide 25 μg/mL overnight with T2 cells, various time points
Procedure: FIG. 1A is a graph depicting the stability of HLA-A2/NGEP complexes for various peptides. The time post-treatment with brefeldin A (hours) is on the x-axis, and the percentage of remaining complexes is on the y-axis. Results are expressed in relative percentage of binding compared to 100% at time 0.
To determine the stability of peptide-MHC complexes, several of the identified peptides (at concentrations of 25 μg/mL) were incubated with T2 cells overnight. Unbound peptides were washed off, and delivery of new class 1 molecules to the cell surface was blocked by the addition of brefeldin A. Cells then were analyzed for the presence of peptide-HLA-A2 complexes at various time points, as indicated by the degree of mean fluorescence intensity. […] P703 peptide also was determined to bind T2 cells at higher levels at various peptide concentrations than the P215 peptide and the positive control (see FIG. 1B).

Row | Sequence | T2 Binding [1] | other results
1 | ALLSASWAV [Peptide P170, NGEP long form amino acids 170-178] | 185 mean fluorescence intensity | 
2 | LLAIRLWAV [Peptide P846, NGEP long form amino acids 846-854] | 126 mean fluorescence intensity | 
3 | VLLEVVPDV [Peptide P215, NGEP long form amino acids 215-223] | 464 mean fluorescence intensity | 
4 | GLFDEYLEMV [Peptide P703, NGEP long form amino acids 703-712] | 565 mean fluorescence intensity | Frequency of NGEP-P703 specific CD8+ T cells, prostate cancer patients versus healthy donors [2]: higher frequency; Binding to T2 cells at various peptide concentrations (FIG. 1B) ([1]; compared with P215 peptide and positive control): higher levels; Stability of peptide-HLA-A2 complexes (FIG. 1A) [3]: most stable complexes
5 | ILFEILAKT [Peptide P258, NGEP long form amino acids 258-266] | 280 mean fluorescence intensity | 
6 | WLLPAAVVGT [Peptide P356, NGEP long form amino acids 356-365] | 354 mean fluorescence intensity | 
7 | GLGGPPLPTL [Peptide P10, NGEP short form amino acids 10-19] | 212 mean fluorescence intensity | 
8 | HLFGYSWYK [CAP-7, reference compound] | 88.0 mean fluorescence intensity | 
9 | IVFEHVVFSV [Peptide P855, NGEP long form amino acids 855-864] | 203 mean fluorescence intensity | 
10 | FLDNIRAAGL [Peptide P143, NGEP short form amino acids 143-152] | 203 mean fluorescence intensity | 
11 | LVWEEDLKL [Peptide P113, NGEP short form amino acids 113-121] | 367 mean fluorescence intensity | 
12 | SLSYTNPAV [MUC-1, reference compound] | 452 mean fluorescence intensity | 
